Measured values from US20220177841A1, “EX VIVO METHODS FOR PRODUCING A T CELL THERAPEUTIC AND RELATED COMPOSITIONS AND METHODS” (Myst Therapeutics LLC, priority 2019, published 2022).

System: expanded human T cells from three healthy donors
Experiment: T cell adjuvant high throughput screen, total viable CD3+ cell count
Format: cell-based
Conditions: 62.5 IU/ml-1000 IU/ml; 6 days
Description: Cells were expanded from PBMC derived from Ficoll gradient separation from three healthy donor's apheresis material. […] Cells were next seeded into gas permeable 100M culture vessels and expanded for 7-14 days to achieve a large bank of T cells, and cryopreserved. […] Half of wells were additionally supplemented with 50 ng/mL OKT3, a human anti-CD3 monoclonal antibody. In total, 15 test adjuvant agents were tested for their impact on cell viability in the presence and absence of anti-CD3 activation (see Table E3). Cells were cultured for 6 days total, including a 50% medium exchange on culture day 3, and monitored for total viable CD3+ cell count.
Total viable CD3+ cell count for cells grown in the absence and presence of OKT3 stimulation are shown in FIGS. 27A-C and FIGS. 28A-C, respectively. The results shown are for the following concentrations of adjuvant: 10 μg/mL for tested antibodies (Tavolixizumab, Oxelumab, Ipilimumab, Tocilizumab, Urelumab, Pembrolizumab, Varlilumab, anti-GITR MK-1248, anto-human FasL); 25 μM for Z-VAD-FMK pan-caspase inhibitor; 250 nM for HSP inhibitor NVP-HSP990; and 1000 IU/mL for cytokine (IL-7, IL-15 or IL-21).

B1: IL-7: recombinant cytokine tested as T cell adjuvant (protein, UniProt P13232 26-177, looked up)
Interleukin-7: DCDIEGKDGKQYESVLMVSIDQLLDSMKEIGSNCLNNEFNFFKRHICDANKEGMFLFRAARKLRQFLKMNSTGDFDLHLLKVSEGTTILLNCTGQVKGRKPAALGEAQPTKSLEENKSLKEQKKLNDLCFLKRLLQEIKTCWNKILMGTKEH
dose response, cell number: cell number increased with increasing concentration
